Measured values: patent US20110124071A1, “METHODS AND COMPOSITIONS FOR PRODUCING HYDROCARBONS” (priority 2009, published 2011)

Key:
E. coli MG1655 = test: Coexpression of putative decarbonylase with S. elongatus PCC7942 orf1594 in E. coli, GC-MS of extracts; type: cell-based; conditions: coexpressed with S. elongatus PCC7942 orf1594 in E. coli MG1655, M9 minimal media
Procedure: After a 1 μl splitless injection (inlet temperature held at 300° C.) onto the GC/MS column, the oven was held at 100° C. for 3 mins. The temperature was ramped up to 320° C. at a rate of 20° C./min. The oven was held at 320° C. for an additional 5 min. The flow rate of the carrier gas helium was 1.3 ml/min. The MS quadrapole scanned from 50 to 550 m/z. Retention times and fragmentation patterns of product peaks were compared with authentic references to confirm peak identity.
The genomic DNA encoding Synechococcus elongatus PCC7942 orf1594 (YP—400611; putative aldehyde-generating enzyme) (SEQ ID NO: 65) was amplified and cloned into the NcoI and EcoRI sites of vector OP-80 (pCL1920 derivative) under the control of the Ptrc promoter. The resulting construct (“OP80-PCC7942—1594”) was transformed into E. coli MG1655 and the cells were grown at 37° C. in M9 minimal media with 1% (w/v) glucose as carbon source and supplemented with 100 μg/ml spectinomycin. When the culture reached OD600 of 0.8-1.0, it was induced with 1 mM IPTG and cells were grown for an additional 18-20 h at 37° C. Cells from 0.5 ml of culture were extracted with 0.5 ml of ethyl acetate. After sonication for 60 min, the sample was centrifuged at 15,000 rpm for 5 min. The solvent layer was analyzed by GC-MS as described in Example 1.
The genomic DNA encoding Synechococcus elongatus PCC7942 orf1593 (YP—400610; putative decarbonylase) (SEQ ID NO: 1) was amplified and cloned into the NdeI and XhoI sites of vector OP-183 (pACYC derivative) under the control of the Ptrc promoter. The resulting construct was cotransformed with OP80-PCC7942—1594 into E. coli MG1655 and the cells were grown at 37° C. in M9 minimal media supplemented with 100 μg/ml spectinomycin and 100 μg/ml carbenicillin. The cells were cultured and extracted as in Example 3 and analyzed by GC-MS as described in Example 1. […]

[1] = system: E. coli MG1655 ΔfadD lacZ::Ptrc-′tesA; test: Heterologous expression in a fatty aldehyde-producing E. coli strain with MSMEG—5739, GC-MS; type: cell-based; conditions: decarbonylase coexpressed with carboxylic acid reductase MSMEG—5739

| Molecule | fatty aldehyde decarbonylase activity (alkane/alkene production) (E. coli MG1655) | conversion of fatty aldehydes provided by MSMEG—5739 to alkanes [1] |
| --- | --- | --- |
| PCC7942—1593: Synechococcus elongatus PCC7942 orf1593 putative decarbonylase (SEQ ID NO: 1) | active fatty aldehyde decarbonylase | – |
| RS9917—12945: Synechococcus sp. RS9917 putative decarbonylase (SEQ ID NO: 25) (protein, listed as Synechococcus sp.) MTQLDFASAAYREAYSRINGVVIVGEGLANRHFQMLARRIPADRDELQRLGRMEGDHASAFVGCGRNLGVVADLPLARRLFQPLHDLFKRHDHDGNRAECLVIQGLIVECFAVAAYRHYLPVADAYARPITAAVMNDESEHLDYAETWLQRHFDQVKARVSAVVVEALPLTLAMLQSLAADMRQIGMDPVETLASFSELFREALESVGFEAVEARRLLMRAAARMV | active fatty aldehyde decarbonylase | converted fatty aldehydes provided by MSMEG—5739 to the corresponding alkanes |
| PM1231: Prochlorococcus marinus MIT9313 putative decarbonylase (SEQ ID NO: 17) (protein, listed as Prochlorococcus marinus) MPTLEMPVAAVLDSTVGSSEALPDFTSDRYKDAYSRINAIVIEGEQEAHDNYIAIGTLLPDHVEELKRLAKMEMRHKKGFTACGKNLGVEADMDFAREFFAPLRDNFQTALGQGKTPTCLLIQALLIEAFAISAYHTYIPVSDPFARKITEGVVKDEYTHLNYGEAWLKANLESCREELLEANRENLPLIRRMLDQVAGDAAVLQMDKEDLIEDFLIAYQESLTEIGFNTREITRMAAAALVS | active fatty aldehyde decarbonylase | – |
| gll3146: Gloeobacter violaceus PCC7421 putative decarbonylase (SEQ ID NO: 15) (protein, listed as Gloeobacter violaceus) VNRTAPSSAALDYRSDTYRDAYSRINAIVLEGEREAHANYLTLAEMLPDHAEALKKLAAMENRHFKGFQSCARNLEVTPDDPFARAYFEQLDGNFQQAAAEGDLTTCMVIQALIIECFAIAAYNVYIPVADAFARKVTEGVVKDEYTHLNFGQQWLKERFVTVREGIERANAQNLPIVWRMLNAVEADTEVLQMDKEAIVEDFMIAYGEALGDIGFSMRDVMKMSARGLASAPRQ | active fatty aldehyde decarbonylase | converted fatty aldehydes provided by MSMEG—5739 to the corresponding alkanes |
| PMM0532: Prochlorococcus marinus CCMP1986 putative decarbonylase (SEQ ID NO: 19) (protein, listed as Prochlorococcus marinus) MQTLESNKKTNLENSIDLPDFTTDSYKDAYSRINAIVIEGEQEAHDNYISLATLIPNELEELTKLAKMELKHKRGFTACGRNLGVQADMIFAKEFFSKLHGNFQVALSNGKTTTCLLIQAILIEAFAISAYHVYIRVADPFAKKITQGVVKDEYLHLNYGQEWLKENLATCKDELMEANKVNLPLIKKMLDQVSEDASVLAMDREELMEEFMIAYQDTLLEIGLDNREIARMAMAAIV | active fatty aldehyde decarbonylase | converted fatty aldehydes provided by MSMEG—5739 to the corresponding alkanes |
| PMN2A—1863: Prochlorococcus mariunus NATL2A putative decarbonylase (SEQ ID NO: 21) (protein, listed as Prochlorococcus marinus) MQAFASNNLTVEKEELSSNSLPDFTSESYKDAYSRINAVVIEGEQEAYSNFLDLAKLIPEHADELVRLGKMEKKHMNGFCACGRNLAVKPDMPFAKTFFSKLHNNFLEAFKVGDTTTCLLIQCILIESFAISAYHVYIRVADPFAKRITEGVVQDEYLHLNYGQEWLKANLETVKKDLMRANKENLPLIKSMLDEVSNDAEVLHMDKEELMEEFMIAYQDSLLEIGLDNREIARMALAAVI | active fatty aldehyde decarbonylase | – |
| RS991709941: Synechococcus sp. RS9917 putative decarbonylase (SEQ ID NO: 23) (protein, listed as Synechococcus sp.) MPTLETSEVAVLEDSMASGSRLPDFTSEAYKDAYSRINAIVIEGEQEAHDNYIALGTLIPEQKDELARLARMEMKHMKGFTSCGRNLGVEADLPFAKEFFAPLHGNFQAALQEGKVVTCLLIQALLIEAFAISAYHIYIPVADPFARKITEGVVKDEYTHLNYGQEWLKANFEASKDELMEANKANLPLIRSMLEQVAADAAVLQMEKEDLIEDFLIAYQEALCEIGFSSRDIARMAAAALAV | active fatty aldehyde decarbonylase | converted fatty aldehydes provided by MSMEG—5739 to the corresponding alkanes |
| tll1313: Thermosynechococcus elongatus BP-1 putative decarbonylase (SEQ ID NO: 11) (protein, listed as Thermosynechococcus elongatus) MTTATATPVLDYHSDRYKDAYSRINAIVIEGEQEAHDNYIDLAKLLPQHQEELTRLAKMEARHKKGFEACGRNLSVTPDMEFAKAFFEKLRANFQRALAEGKTATCLLIQALIIESFAIAAYNIYIPMADPFARKITESVVKDEYSHLNFGEIWLKEHFESVKGELEEANRANLPLVWKMLNQVEADAKVLGMEKDALVEDFMIQYSGALENIGFTTREIMKMSVYGLTGA | active fatty aldehyde decarbonylase | – |
| Cyan7425—2986: Cyanothece sp. PCC7425 putative decarbonylase (SEQ ID NO: 31) (protein, listed as Cyanothece sp.) MSDCATNPALDYYSETYRNAYRRVNGIVIEGEKQAYDNFIRLAELLPEYQAELTRLAKMEARHQKSFVACGQNLKVSPDLDFAAQFFAELHQIFASAANAGQVATCLVVQALIIECFAIAAYNTYLPVADEFARKVTASVVQDEYSHLNFGEVWLQNAFEQCKDEIITANRLALPLIWKMLNQVTGELRILGMDKASLVEDFSTRYGEALGQIGFKLSEILSLSVQGLQAVTP | active fatty aldehyde decarbonylase | – |
| ATCC51142 cce—0778: Cyanothece sp. ATCC51142 putative decarbonylase (SEQ ID NO: 27) (protein, listed as Cyanothece sp.) MQELALRSELDFNSETYKDAYSRINAIVIEGEQEAYQNYLDMAQLLPEDEAELIRLSKMENRHKKGFQACGKNLNVTPDMDYAQQFFAELHGNFQKAKAEGKIVTCLLIQSLIIEAFAIAAYNIYIPVADPFARKITEGVVKDEYTHLNFGEVWLKEHFEASKAELEDANKENLPLVWQMLNQVEKDAEVLGMEKEALVEDFMISYGEALSNIGFSTREIMKMSAYGLRAA | active fatty aldehyde decarbonylase | – |
| alr5283: Nostoc sp. PCC7210 putative decarbonylase (SEQ ID NO: 7) (protein, listed as Nostoc sp.) MQQVAADLEIDFKSEKYKDAYSRINAIVIEGEQEAYENYIQLSQLLPDDKEDLIRLSKMESRHKKGFEACGRNLQVSPDMEFAKEFFAGLHGNFQKAAAEGKIVTCLLIQSLIIECFAIAAYNIYIPVADDFARKITEGVVKDEYSHLNFGEVWLQKNFAQSKAELEEANRHNLPIVWKMLNQVADDAAVLAMEKEALVEDFMIQYGEALSNIGFTTRDIMRMSAYGLTAA | active fatty aldehyde decarbonylase | converted fatty aldehydes provided by MSMEG—5739 to the corresponding alkanes |
| Cyan7425—0398: Cyanothece sp. PCC7425 putative decarbonylase (SEQ ID NO: 29) (protein, listed as Cyanothece sp.) MPQVQSPSAIDFYSETYQDAYSRIDAIVIEGEQEAHDNYLKLTELLPDCQEDLVRLAKMEARHKKGFEACGRNLKVTPDMEFAQQFFADLHNNFQKAAAANKIATCLVIQALIIECFAIAAYNIYIPVADDFARKITENVVKDEYTHLNFGEEWLKANFDSQREEVEAANRENLPIVWRMLNQVETDAHVLGMEKEALVESFMIQYGEALENIGFSTREIMRMSVYGLSAA | active fatty aldehyde decarbonylase | – |
